Data on three molecules can be found in publication PMC11585782, “The Plastidial Protein Acetyltransferase GNAT1 Forms a Complex With GNAT2, yet Their Interaction Is Dispensable for State Transitions” (Molecular & Cellular Proteomics : MCP, 2024).

Usually Km stands for the substrate concentration at which the rate is half of its maximum. For orientation: kcat means the number of substrate molecules converted per active site and unit of time at saturation.

The target of data set [1] is His6-GNAT2 (Arabidopsis thaliana) (UniProt Q7X9V3).
Data set [2] shares this target. The source holds these as a separate data set.
Substrate in data set [3]: CC(=O)SCCNC(=O)CCNC(=O)[C@H](O)C(C)(C)COP(=O)(O)OP(=O)(O)OC[C@H]1O[C@@H](n2cnc3c(N)ncnc32)[C@H](O)[C@@H]1OP(=O)(O)O
Kind of data set: purified protein. As to conditions: acetyl-CoA 0-500 µM, 150 mM K-phosphate pH 8.0, 50 mM NaCl, 30 °C. The class given is biochemical, Arabidopsis thaliana.

Where [4] appears, read: co-substrate Nα-Ala peptide A-A-Q-G-A-K(ac)-A-A-K(Dnp)-Ahx-r-r-r 100 µM.
The mark [5] stands for this setting: co-substrate Nα-Val peptide V-A-Q-G-A-K(ac)-A-A-K(Dnp)-Ahx-r-r-r 100 µM.

B1: His6-GNAT1 (enzyme)
chain: AAMQRKPPSYSISDEDLESRGFLLRRTTEGLNLDQLNSVFAAVGFPRRDTAKIEVALQHTDALLWVEYEKTRRPVAFARATGDGVFNAIIWDVVVDPSFQSCGLGKAVMERLIEDLQVKGICNIALYSEPRVLGFYRPLGFVSDPDGIKGMVFIRKQRNKK
B1: in data set [1], the acetylation of the Nα-Met peptide by His6-GNAT1 + His6-GNAT2 (1 + 1 μM), effective activity as percent of the hypothetical sum of the single activities came out at 55%; the acetylation of the Nα-Thr peptide by His6-GNAT1 + His6-GNAT2 (1 + 1 μM), effective activity as percent of the hypothetical sum of the single activities came out at 73%; the acetylation of the Nα-Val peptide by His6-GNAT1 + His6-GNAT2 (1 + 1 μM), effective activity as percent of the hypothetical sum of the single activities came to 76%; the acetylation rate of the Nα-Ala peptide by His6-GNAT1 + His6-GNAT2 (1 + 1 μM), against around 450 nmol ∙ min^-1 expected for additive activity came out at 250 nmol/min. The lysine acetylation of the Nε-Lys peptide by His6-GNAT1 + His6-GNAT2 (1 + 1 μM), effective activity as percent of the hypothetical sum of the single activities in data set [1] stood at 93%. The acetylation of the Nα-Ala peptide in the presence of both GNATs, turnover as percent of the hypothetical sum of both individual activities in data set [2] came out at 53%.

B2: His6-GNAT1 (Arabidopsis thaliana) (protein)
chain: AAMQRKPPSYSISDEDLESRGFLLRRTTEGLNLDQLNSVFAAVGFPRRDTAKIEVALQHTDALLWVEYEKTRRPVAFARATGDGVFNAIIWDVVVDPSFQSCGLGKAVMERLIEDLQVKGICNIALYSEPRVLGFYRPLGFVSDPDGIKGMVFIRKQRNKK
notes: N-terminal His6 (pQE-30), predicted plastid transit peptide (36 N-terminal residues) removed; expressed in E. coli SoluBL21, Ni-NTA
Regarding B2, in data set [3] (setting [4]), the Km is 137.6 ± 9.8 µM and the kcat amounted to 0.00858 ± 0.00025 s⁻¹.

B3: His6-GNAT2 (Arabidopsis thaliana) (protein)
chain: SGFVKNNNSTQLVEPPSIVNDEEEETEPLLPVEFTLVERNLEDGLVEEIIFSSGGEIDVYDLQGLCDKVGWPRRPLVKLAAALKNSYMVATLHSVMKSSSDSDSSEGGDGEKQQEKKLIGMARATSDHAFNATIWDVLVDPEYQGQGLGKALVEKLVRALLQRDIGNISLFADSQVVDFYQNLGFEADPEGIKGMFWYPK
notes: expressed in E. coli, purified
On to B3, for which, in data set [3] (setting [5]), the Km is 23.44 ± 0.32 µM and the kcat came to 0.02335 ± 5e-05 s⁻¹.
